Measurements published in patent publication US20210284709A1 (JUNO THERAPEUTICS, published 2021).
Numbering of substitutions follows the chain as printed.

B1: modified version of TCR 7 (TCR, V domains shown)
V domain 1: KNQVEQSPQSLIILEGKNCTLQCNYTVSPFSNLRWYKQDTGRGPVSLTIMTFSENTKSNGRYTATLDADTKQSSLHITASQLSDSASYICVVSRDNYGQNFVFGPGTRLSVLP
V domain 2: EPEVTQTPSHQVTQMGQEVILRCVPISNHLYFYWYRQILGQKVEFLVSFYNNEISEKSEIFDDQFSVERPDGSNFTLKIRSTKLEDSAMYFCAITDRTNYGYTFGSGTRLTVVE
B2: modified version of TCR 8 (TCR, V domains shown)
V domain 1: KQEVTQIPAALSVPEGENLVLNCSFTDSAIYNLQWFRQDPGKGLTSLLLIQSSQREQTSGRLNASLDKSSGRSTLYIAASQPGDSATYLCAVRPLGNTPLVFGKGTRLSVIA
V domain 2: KVTQSSRYLVKRTGEKVFLECVQDMDHENMFWYRQDPGLGLRLIYFSYDVKMKEKGDIPEGYSVSREKKERFSLILESASTNQTSMYLCASSLWGASTDTQYFGPGTRLTVLE
B3: modified version of TCR 3 (TCR)
TCR alpha: AQKITQTQPGMFVQEKEAVTLDCTYDTSDQSYGLFWYKQPSSGEMIFLIYQGSYDEQNATEGRYSLNFQKARKSANLVISASQLGDSAMYFCAMREGRGFKTIFGAGTRLFVKANIQKPDPAVYQLRDSKSSDKSVCLFTDFDSQTNVSQSKDSDVYITDKCVLDMRSMDFKSNSAVAWSNKSDFACANAFNNSIIPADTFFPSPESSCDVKLVEKSFETDTNLNFQNLSVIGFRILLLKVAGFNLLMTLRLWSS
TCR beta: GAGVSQSPRYKVAKRGQDVALRCDPISGHVSLFWYQQALGQGPEFLTYFQNEAQLDKSGLPSDRFFAERPEGSVSTLKIQRTQQEDSAVYLCASSHLAGFTGELFFGEGSRLTVLEDLKNVFPPEVAVFEPSEAEISHTQKATLVCLATGFYPDHVELSWWVNGKEVHSGVCTDPQPLKEQPALNDSRYCLSSRLRVSATFWQNPRNHFRCQVQFYGLSENDEWTQDRAKPVTQIVSAEAWGRADCGFTSESYQQGVLSATILYEILLGKATLYAVLVSALVLMAMVKRKDSRG
B4: modified version of TCR 9 (TCR)
TCR alpha: AQKITQTQPGMFVQEKEAVTLDCTYDTSDPSYGLFWYKQPSSGEMIFLIYQGSYDQQNATEGRYSLNFQKARKSANLVISASQLGDSAMYFCAMRTAGGTSYGKLTFGQGTILTVHPNIQNPDPAVYQLRDSKSSDKSVCLFTDFDSQTNVSQSKDSDVYITDKCVLDMRSMDFKSNSAVAWSNKSDFACANAFNNSIIPEDTFFPSPESSCDVKLVEKSFETDTNLNFQNLSVIGFRILLLKVAGFNLLMTLRLWSS
TCR beta: NAGVTQTPKFRVLKTGQSMTLLCAQDMNHEYMYWYRQDPGMGLRLIHYSVGEGTTAKGEVPDGYNVSRLKKQNFLLGLESAAPSQTSVYFCASSYFGTAYEQYFGPGTRLTVTEDLKNVFPPEVAVFEPSEAEISHTQKATLVCLATGFYPDHVELSWWVNGKEVHSGVCTDPQPLKEQPALNDSRYCLSSRLRVSATFWQNPRNHFRCQVQFYGLSENDEWTQDRAKPVTQIVSAEAWGRADCGFTSESYQQGVLSATILYEILLGKATLYAVLVSALVLMAMVKRKDSRG
B5: modified version of TCR 5 (TCR, V domains shown)
V domain 1: AQKITQTQPGMFVQEKEAVTLDCTYDTSDQSYGLFWYKQPSSGEMIFLIYQGSYDEQNATEGRYSLNFQKARKSANLVISASQLGDSAMYFCAMREGTGTSYGKLTFGQGTILTVHP
V domain 2: DVKVTQSSRYLVKRTGEKVFLECVQDMDHENMFWYRQDPGLGLRLIYFSYDVKMKEKGDIPEGYSVSREKKERFSLILESASTNQTSMYLCASSPWGETHQPQHFGDGTRLSILE
B6: modified version of TCR 4 (TCR)
TCR alpha: DAKTTQPNSMESNEEEPVHLPCNHSTISGTDYIHWYRQLPSQGPEYVIHGLTSNVNNRMASLAIAEDRKSSTLILHRATLRDAAVYYCILLVIRGTSYGKLTFGQGTILTVHPNIQNPDPAVYQLRDSKSSDKSVCLFTDFDSQTNVSQSKDSDVYITDKCVLDMRSMDFKSNSAVAWSNKSDFACANAFNNSIIPEDTFFPSPESSCDVKLVEKSFETDTNLNFQNLSVIGFRILLLKVAGFNLLMTLRLWSS
TCR beta: DTGVSQDPRHKITKRGQNVTFRCDPISEHNRLYWYRQTLGQGPEFLTYFQNEAQLEKSRLLSDRFSAERPKGSFSTLEIQRTEQGDSAMYLCASSPGGGNTEAFFGQGTRLTVVEDLNKVFPPEVAVFEPSEAEISHTQKATLVCLATGFFPDHVELSWWVNGKEVHSGVCTDPQPLKEQPALNDSRYCLSSRLRVSATFWQNPRNHFRCQVQFYGLSENDEWTQDRAKPVTQIVSAEAWGRADCGFTSVSYQQGVLSATILYEILLGKATLYAVLVSALVLMAMVKRKDF
B7: TCR 24 (codon-optimized, cysteine-modified) (TCR, V domains shown)
V domain 1: B5 V domain 1 with T98R, T100D, Y102W, T106Q, Q109A, I112Q, L113V, T114V, H116T
V domain 2: DVKVTQSSRYLVKRTGEKVFLECVQDMDHENMFWYRQDPGLGLRLIYFSYDVKMKEKGDIPEGYSVSREKKERFSLILESASTNQTSMYLCASSPFGRGSYEQYFGPGTRLTVTE
B8: TCR 27 (codon-optimized, cysteine-modified) (TCR, V domains shown)
V domain 1: DAKTTQPNSMESNEEEPVHLPCNHSTISGTDYIHWYRQLPSQGPEYVIHGLTSNVNNRMASLAIAEDRKSSTLILHRATLRDAAVYYCILRVPPQSGGYQKVTFGTGTKLQVIP
V domain 2: NAGVTQTPKFQVLKTGQSMTLQCAQDMNHNSMYWYRQDPGMGLRLIYYSASEGTTDKGEVPNGYNVSRLNKREFSLRLESAAPSQTSVYFCASSEFGSLNEKLFFGSGTQLSVLE
B9: TCR 10 (native, clonal T cell line) (TCR, V domains shown)
V domain 1: RKEVEQDPGPFNVPEGATVAFNCTYSNSASQSFFWYRQDCRKEPKLLMSVYSSGNEDGRFTAQLNRASQYISLLIRDSKLSDSATYLCVVNFPSRGAGGTSYGKLTFGQGTILTVHP
V domain 2: B7 V domain 2 with P95L, F96S, G97L, R98T, S100N, E102G, Q103Y, Y104T, P107S, T114V

Target: HLA-A2/E7(11-19) tetramer (human; HPV 16)
Test: cell-based or functional assay

Binder	% CD8+/IC IFNγ+
B1	62.4%
B2	11.4%
B3	2.51%
B4	19.5%
B5	7.22%
B6	2.5%

Target: HLA-A2/E6(29-38) tetramer (human; HPV 16)
Test: cell-based or functional assay

Binder	% CD8+/IC IFNγ+
B1	70.5%
B2	95%
B3	95.1%
B4	91.1%
B5	43.7%
B6	94.2%

Target: T1, HLA-A2/E6(29-38) tetramer (human; HPV 16)
T1 construct: also called E6(29-38) peptide-MHC tetramer; E6 tet
Test: flow cytometry, tetramer + anti-CD8; transfected Jurkat-derived cells, CD8+ cells
Description: (§1) For transfection, the CD4+ and CD4+/CD8+ cell mixtures were transiently transfected with TCR-encoding plasmids and 48 hours after transfection, cells were assessed by flow cytometry for (1) binding of the target peptide in the context of an MHC molecule (HLA:A02:01) by staining with an E6(29-38) peptide- or an E7(11-19) peptide-MHC tetramer reagent, and/or (2) CD8+ independent binding of the target by co-staining the tetramer-labeled cells with an anti-CD8 antibody.

Binder	% cells E6 tet+/CD8+ quadrant	% cells E6 tet+/CD8- quadrant
B4	42.5%	0.051%
B7	29.1%	0.13%
B8	24.5%	0.02%

Target: T1, HLA-A2/E6(29-38) tetramer
Test: flow cytometry, tetramer + anti-CD8; transfected mix of CD8- and CD8+ Jurkat-derived cells;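 also: CD4+ and CD4+/CD8+ cell mixtures transiently given TCR plasmids, analysed 48 h post-transfection by flow cytometry with E6(29-38)–HLA-A*02:01 tetramer plus anti-CD8 antibody co-stain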
Description: as §1

Binder	% cells E6 tet+/CD8+ quadrant	% cells E6 tet+/CD8- quadrant
B7	55%	23.5%
B8	15.8%	3.5%

Target: T1, HLA-A2/E6(29-38) tetramer
Test: tetramer staining of clonal T cell line vs control

Binder	binding result
B9	binds
